Experiments:
[1] = target: AGP from plasma of patients with hepatocellular carcinoma (HCC-AGP) (human) (UniProt P02763); test: reversed S2-ELISA, HCC-plasma sample against a normal sample (background); 5 µg/ml S2 coating
[2] = target: desialylated AGP (dsAGP) (human) (UniProt P02763); test: standard lectin ELISA: antibody 058 coated, dsAGP 2 µg/ml, biotinylated S2 at 0.25 µg/mL for detection
[3] = target: AGP from plasma of patients with hepatocellular carcinoma (HCC-AGP) (human) (UniProt P02763); test: standard lectin ELISA: antibody 058 coated, plasma 1:50, biotinylated S2 at 0.25 µg/mL for detection
[4] = target: AGP from plasma of patients with hepatocellular carcinoma (HCC-AGP) (human) (UniProt P02763); test: reversed S2-ELISA: S2 coated at 5 µg/mL, plasma 1:50, detection with antibody 058
[5] = target: desialylated AGP (dsAGP) (human) (UniProt P02763); test: reversed S2-ELISA: S2 coated at 5 µg/mL, dsAGP 2 µg/ml, detection with antibody 058

Which results are given for “S2-peptide (monovalent fucose-binding peptide; recombinant form of Aleuria aurantia lectin comprising only binding site 2) (from UniProt P18891 51-161)”?
signal to background ratio [1]: 10; signal to background ratio [2]: 1.38; signal to background ratio [3]: 1.05; signal to noise ratio [4]: 5.1; signal to noise ratio [5]: 5.2

From US20200319189A1
